Results reported in US20180282719A1 (published 2018).
Residue numbers refer to the chain shown, from its start. Like-named read-outs stand apart in the source and are kept apart here. Blank lines part the entries; values can stand above or below the binder they belong to.

Assays:
[1] = molecular target: T1, recombinant soluble human IL-6 receptor (SR344) (human, UniProt P08887 20-344, biotinylated (sites not given) where immobilized via streptavidin or used in phage ELISA); test: SPR Biacore T100, biotinylated SR344 on streptavidin chip (model of membrane-type IL-6 receptor), antibody 0.25 ug/mL as analyte, bound at pH 7.4, dissociation at pH 7.4, 37 C
T1 construct: also called soluble IL-6 receptor; membrane-type IL-6 receptor (when biotinylated and immobilized on the chip)
T1 sequence (looked up): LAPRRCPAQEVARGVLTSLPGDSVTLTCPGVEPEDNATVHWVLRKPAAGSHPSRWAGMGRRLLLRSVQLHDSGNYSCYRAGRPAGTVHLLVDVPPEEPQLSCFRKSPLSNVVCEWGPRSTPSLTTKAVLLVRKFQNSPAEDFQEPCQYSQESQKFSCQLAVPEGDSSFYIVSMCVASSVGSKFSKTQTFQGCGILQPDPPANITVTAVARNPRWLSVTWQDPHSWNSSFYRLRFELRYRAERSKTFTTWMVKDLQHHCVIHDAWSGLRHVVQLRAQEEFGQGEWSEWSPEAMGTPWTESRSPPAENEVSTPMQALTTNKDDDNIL

[2] = molecular target: T1, recombinant soluble human IL-6 receptor …; test: SPR Biacore T100, biotinylated SR344 on streptavidin chip (model of membrane IL-6 receptor), antibody 0.5 ug/mL as analyte, 37 C
Description: The binding to membrane IL-6 receptor was evaluated by evaluating the binding to the IL-6 receptor immobilized onto a sensor chip. SR344 was biotinylated according to a method known to persons skilled in the art, and the biotinylated SR344 was immobilized on the sensor chip via streptavidin by utilizing the affinity between streptavidin and biotin. All the measurements were carried out at 37° C., and the mobile phase buffer contained 10 mM MES (pH 5.8), 150 mM NaCl and 0.05% TWEEN® 20 (polyoxyethelene sorbitan monolaurate). The pH-dependent binding clones were injected therein under the condition of pH 7.4 and allowed to bind to SR344 (injection sample buffer: 10 mM MES (pH 7.4), 150 mM NaCl, 0.05% TWEEN® 20 (polyoxyethelene sorbitan monolaurate)), and the pH-dependent dissociation of each clone at the mobile phase pH of 5.8 was observed (FIG. 10).
The dissociation rate […]) at pH 5.8 was calculated using Biacore T100™ Evaluation Software (GE Healthcare) by fitting only the dissociation phase at pH 5.8, where 0.5 μg/mL of the sample was bound in 10 mM MES (pH 7.4), 150 mM NaCl, and 0.05% TWEEN® 20 (polyoxyethelene sorbitan monolaurate), and dissociated in 10 mM MES (pH 5.8), 150 mM NaCl, and 0.05% TWEEN® 20 (polyoxyethelene sorbitan monolaurate). Similarly, the dissociation rate (kd(1/s)) at pH 7.4 was calculated using Biacore T100™ Evaluation Software (GE Healthcare) by fitting only the dissociation phase at pH 7.4, where 0.5 μg/mL of the sample was bound in 10 mM MES (pH 7.4), 150 mM NaCl, and 0.05% TWEEN® 20 (polyoxyethelene sorbitan monolaurate), and dissociated in 10 mM MES (pH 7.4), 150 mM NaCl, and 0.05% TWEEN® 20 (polyoxyethelene sorbitan monolaurate).

[3] = molecular target: T1, recombinant soluble human IL-6 receptor …; test: SPR Biacore T100, antibody captured by anti-IgG gamma chain F(ab)2, SR344 analyte, pH 7.4, 37 C
Description: Kinetic analyses of antigen-antibody reactions at pH 7.4 were carried out on the four types of antibodies, i.e., the humanized PM1 antibody (wild type: WT), and […], H3pI/L73-IgG1, Fv2-IgG1, and Fv4-IgG1 constructed in Examples 2 and 10, by using a Biacore T100™ surface plasmon resonance system (GE Healthcare) (buffer: 10 mM MES (pH 7.4), 150 mM NaCl, 0.05% TWEEN® 20 (polyoxyethelene sorbitan monolaurate)). Each antibody was bound on a sensor chip on which an anti-IgG γ chain specific F(ab)₂ (Pierce) was immobilized by amine coupling, and then, SR344 adjusted to a concentration of 9.8 to 40 nM was injected thereto as an analyte. The association to and dissociation from SR344 were observed on a real-time basis for the pH-dependent-binding clones. All the measurements were carried out at 37° C. Association rate constants kₐ (1/Ms) and dissociation rate constants kd (1/s) were calculated using Biacore T100™ Evaluation Software (GE Healthcare), and dissociation constants KD (M) were calculated on the basis of those values (Table 7).

[4] = molecular target: T1, recombinant soluble human IL-6 receptor …; test: as above; remark: listed apart in the source
Procedure, shortened: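 Antibodies were captured on an anti-IgG γ-chain F(ab)₂ chip, with SR344 at 9.8–40 nM injected in 10 mM MES pH 7.4, 150 mM NaCl, 0.05% Tween 20, at 37° C. Real-time association/dissociation gave ka and kd, from which KD was calculated.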

koff [1]: 0.00026 s⁻¹
kd ratio pH 5.8/pH 7.4 [2]: 11
Kd [3]: 1.4 nM
koff [3]: 0.00059 s⁻¹
kon [3]: 410000 M⁻¹ s⁻¹
Kd [4]: 1.4 nM
koff [4]: 0.00059 s⁻¹
kon [4]: 410000 M⁻¹ s⁻¹
B1: H3pI/L73 (antibody, IgG1, V domains shown)
VH: QVQLQESGPGLVKPSETLSLTCAVSGHSISHDHAHSWVRQPPGEGLEWIGYISYSGITNYNPSLKGRVTISRDTSKNQFSLKLSSVTAADTAAYYCARSLARTTAMDYWGEGTLVTVSS
VL: DIQMTQSPSSLSASVGDSVTITCQASQHISSHLNWYQQKPGKAPELLIYYGSHLHSGVPSRFSGSGSGTDFTFTISSLEAEDAATYYCGQGNRLPYTFGQGTKVEIE
notes: tested as IgG1; also called H3pI/L73-IgG1; H3pl/L73

kd ratio pH 5.8/pH 7.4 [2]: 1.9
B2: H170/L82 (antibody, IgG1, V domains shown)
VH: B1 VH with D32H, N59H, S63H, S99V, T103I, Y108H
VL: B1 VL with H28D
notes: expressed and purified as IgG (IgG1); also called H170/L82-IgG1

koff [1]: 0.00047 s⁻¹
Kd [3]: 1.4 nM
koff [3]: 0.001 s⁻¹
kon [3]: 720000 M⁻¹ s⁻¹
Kd [4]: 1.4 nM
koff [4]: 0.001 s⁻¹
kon [4]: 720000 M⁻¹ s⁻¹
B3: Fv4-IgG1 (antibody)
heavy: not shown
light: DIQMTQSPSSLSASVGDSVTITCQASTDISSHLNWYQQKPGKAPELLIYYGSHLLSGVPSRFSGSGSGTDFTFTISSLEAEDAATYYCGQGNRLPYTFGQGTKVEIERTVAAPSVFIFPPSDEQLKSGTASVVCLLNNFYPREAKVQWKVDNALQSGNSQESVTEQDSKDSTYSLSSTLTLSKADYEKHKVYACEVTHQGLSSPVTKSFNRGEC
notes: VH3-IgG1 / VL3-CK

koff [1]: 0.00025 s⁻¹
kd ratio pH 5.8/pH 7.4 [2]: 1.5
Kd [3]: 2.7 nM
koff [3]: 0.0011 s⁻¹
kon [3]: 400000 M⁻¹ s⁻¹
Kd [4]: 2.7 nM
koff [4]: 0.0011 s⁻¹
kon [4]: 400000 M⁻¹ s⁻¹
B4: humanized PM1 antibody (wild type, WT) (antibody, human IgG1, kappa, V domains shown)
VH: QVQLQESGPGLVRPSQTLSLTCTVSGYSITSDHAWSWVRQPPGRGLEWIGYISYSGITTYNPSLKSRVTMLRDTSKNQFSLRLSSVTAADTAVYYCARSLARTTAMDYWGQGSLVTVSS
VL: DIQMTQSPSSLSASVGDRVTITCRASQDISSYLNWYQQKPGKAPKLLIYYTSRLHSGVPSRFSGSGSGTDFTFTISSLQPEDIATYYCQQGNTLPYTFGQGTKVEIKR
notes: IgG1; also called WT-IgG1; wild type humanized anti-IL-6 receptor antibody
